This is an account of results in patent US9365620B2, “Methods for treating pain” (NoNO NC., priority 2008, dated 2016).

“Also recorded” adds a separate entry of the source. Non-standard residues stand in square brackets, D forms with d. No end group written: not given here. Tle = CC(C)(C)[C@H](N)C(=O)O; Nva = CCC[C@H](N)C(=O)O

One test concerns the target N-type calcium channels (Mus musculus, UniProt O55017). It counts as cell-based, Swiss mice.
A further test deals with N-type Ca channels (Homo sapiens, UniProt Q00975). It counts as binding. The note with it: peptide at 10 μM.
For test [1], the system named is pain hypersensitivity after peripheral nerve injury. As to the kind of experiment: Paw withdrawal threshold (von Frey) after chronic constriction injury of the sciatic nerve. It counts as in vivo, Sprague-Dawley rats. The text has this: In these experiments, chronic constriction injury of the sciatic nerve was induced using the polyethylene cuff method (Mosconi T, Kruger L., Pain 1996, 64: 37-57). The left sciatic nerve of adult male Sprague-Dawley rats was exposed at mid-thigh level under halothane anesthesia. A polyethylene cuff (PE90 tubing, 2 mm in length) was slit open longitudinally and implanted around the sciatic nerve, and the animals were allowed to recover for a suitable period, e.g., 10-14 days. A sterile isotonic saline solution containing dissolved Tat-NR2B9c, or a saline-only control, was injected into the tail vein, with the animal under brief halothane anesthesia. Sensitivity to pain was measured by testing the paw withdrawal threshold of animals. Paw withdrawal thresholds to mechanical stimulation were assessed using Von-Frey filaments (Stoelting Co., Wood Dale, Ill., USA). Animals were placed in plastic cages with a plastic bottom. To test the tactile threshold required to evoke withdrawal of the stimulated paw, von Frey filaments (0.008-15.18 g) were applied perpendicularly to the plantar part of the hind paw in an ascending order. Each filament was applied for 5 times, and the paw withdrawal threshold was determined when there were three positive responses out of five times a filament was applied. To avoid tissue damage, the cut off threshold was assigned as 15.18 g.

Take YGRKKRRQRRR [Peptide 1990]: in the test with N-type calcium channels, the “Ca^2+ current shown as a percentage” value is on record as 57+/−1.6%.

“KLSSIESDV (synthetic 1991 peptide 2B9c) [Peptide 1991, peptide 2B9c, the C-terminal portion of Tat-NR2B9c]”: in the test with N-type calcium channels, the “Ca^2+ current shown as a percentage” value is on record as 94+/−1.7% and the “inhibition of N-type calcium channel activity” value is on record as “no significant inhibition”.

For the sequence “FGRKKRRQRRRALSSIESDV (synthetic 1995 peptide F-Tat-NR2B9c K to A) [Peptide 1995]”, the “Ca^2+ current shown as a percentage” value with N-type calcium channels is 97+/−0.2%.

On to “YGRKKRRQRRRKLSSIESDV [Tat-NR2B9c] (Synthetic peptide Tat-NR2B9c) [chimeric peptide of a standard tat peptide and …]”, for which the “inhibition of radiolabeled ω-Conotoxin GVIA binding to N-type Ca channels” value in the test with N-type Ca channels was determined as 100%.

As to “YGRKKRRQRRRALSSIESDV (synthetic 1994 peptide Tat-NR2B9c K to A) [Peptide 1994]”, in the test with N-type calcium channels, the “Ca^2+ current shown as a percentage” value is recorded as 77+/−1.8% and the “inhibition of N-type calcium channel activity” value is “no significant inhibition; also recorded: some reduction in the amount of N-type calcium channel activity”.

For the sequence “YGRKKRRQRRRKLSSIESDX [1977] (YGRKKRRQRRRKLSSIESD[Tle]) [Peptide 1977, …X where X=L-t-butyl-glycine]”, the “Ca^2+ current shown as a percentage” value in the test with N-type calcium channels is recorded as 65+/−5.1%.

With “YGRKKRRQRRRKLSSIESDX [1976] (YGRKKRRQRRRKLSSIESD[Nva]) [Peptide 1976, …X where X=norvaline]”, the “Ca^2+ current shown as a percentage” value with N-type calcium channels was 66+/−3.4%.

As for “YGRKKRRQRRRKLSSIESDV [1987] ([dY]G[dR][dK][dK][dR][dR][dQ][dR][dR][dR][dK][dL][dS][dS][dI][dE][dS][dD][dV]) [Peptide 1987, D-isomer of Tat-NR2B9c]”, in the test with N-type calcium channels, the “Ca^2+ current shown as a percentage” value is 82+/−2.2% and the “inhibition of N-type calcium channel activity” value was “some reduction in the amount of N-type calcium channel activity”.

In the case of “YGRKKRRQRRRKLSSIEADA (synthetic 1992 peptide Tat-NR2B9c-AA) [Peptide 1992]”, in the test with N-type calcium channels, the “Ca^2+ current shown as a percentage” value is given as 74+/−2.4% and the “inhibition of N-type calcium channel activity” value is reported as “some reduction in the amount of N-type calcium channel activity”.

As for “YGRKKRRQRRRKLSSIESDV (Synthetic peptide Tat-NR2B9c) [chimeric peptide of a standard tat peptide and …]”, the “reversal of pain hypersensitivity (paw withdrawal threshold)” value in test [1] (high dose, 10 mg/kg i.v., rats, 60, 90, 120 min, 10 mg/kg) was “did not result in any apparent reversal of pain hypersensitivity; also recorded: had no effect on pain hypersensitivity; also recorded: showed no effect on pain hypersensitivity”; in test [1] (low dose, 100 pmol per animal i.v., rats, day 10-14 after surgery) it was “reversed pain hypersensitivity; also recorded: showed a decrease in pain hypersensitivity”.
